In general, Kd refers to the free concentration of one partner at which half of the binding sites on the other are occupied at equilibrium, for simple one-to-one binding. Higher therefore signals weaker binding. The koff is the first-order rate constant of dissociation. As a reminder, the kon is a measure of how fast the partners come together.

The target in test [1] is T1, mouse membrane-presented CD47 on Tg32 mouse erythrocytes (mouse, UniProt Q61735 19-303).
T1 construct: whole, on cells
T1 sequence (looked up): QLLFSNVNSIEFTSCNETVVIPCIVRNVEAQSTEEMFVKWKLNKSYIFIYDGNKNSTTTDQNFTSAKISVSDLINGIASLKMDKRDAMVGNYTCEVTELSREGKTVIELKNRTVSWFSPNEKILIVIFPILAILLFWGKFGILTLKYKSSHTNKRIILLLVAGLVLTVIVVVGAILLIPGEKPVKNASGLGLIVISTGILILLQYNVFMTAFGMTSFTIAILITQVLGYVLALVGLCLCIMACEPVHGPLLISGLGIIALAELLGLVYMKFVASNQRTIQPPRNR
The experiment in a line: flow cytometry on Tg32 mouse erythrocytes (FIG. 21). (In general: Flow cytometry measures light scatter and fluorescence of single cells or particles in a stream.)

In test [2] the target is human CD47 on cells (human erythrocytes, MCF-7, BT-474) (human, UniProt Q08722 19-323). The test is described as follows: cell-based or functional assay.
The target in test [3] is T2, soluble human CD47 ectodomain protein (human, UniProt Q08722 19-139).
T2 construct: also called hCD47; huCD47
The experiment in a line: SPR (Biacore), IgG captured via anti-Fc; run at beginning. (In general: Surface plasmon resonance follows binding to a sensor surface in real time, without labels.)

Test [4] concerns the target T2, soluble human CD47 ectodomain protein. The test is described as follows: SPR (Biacore), IgG captured via anti-Fc; run at end.
Test [5] deals with T3, human CD47 protein (ELISA coat) (human, UniProt Q08722 19-139).
T3 construct: also called hCD47
The experiment in a line: direct binding ELISA (FIG. 7C). (ELISA stands for enzyme-linked immunosorbent assay.)

Test [6] has as its target human C-MET protein (ELISA coat) (human, UniProt P08581 25-932). The experiment in a line: direct binding ELISA (FIG. 7C).

Sequence of human C-MET protein (ELISA coat) (P08581 25-932 limits assumed): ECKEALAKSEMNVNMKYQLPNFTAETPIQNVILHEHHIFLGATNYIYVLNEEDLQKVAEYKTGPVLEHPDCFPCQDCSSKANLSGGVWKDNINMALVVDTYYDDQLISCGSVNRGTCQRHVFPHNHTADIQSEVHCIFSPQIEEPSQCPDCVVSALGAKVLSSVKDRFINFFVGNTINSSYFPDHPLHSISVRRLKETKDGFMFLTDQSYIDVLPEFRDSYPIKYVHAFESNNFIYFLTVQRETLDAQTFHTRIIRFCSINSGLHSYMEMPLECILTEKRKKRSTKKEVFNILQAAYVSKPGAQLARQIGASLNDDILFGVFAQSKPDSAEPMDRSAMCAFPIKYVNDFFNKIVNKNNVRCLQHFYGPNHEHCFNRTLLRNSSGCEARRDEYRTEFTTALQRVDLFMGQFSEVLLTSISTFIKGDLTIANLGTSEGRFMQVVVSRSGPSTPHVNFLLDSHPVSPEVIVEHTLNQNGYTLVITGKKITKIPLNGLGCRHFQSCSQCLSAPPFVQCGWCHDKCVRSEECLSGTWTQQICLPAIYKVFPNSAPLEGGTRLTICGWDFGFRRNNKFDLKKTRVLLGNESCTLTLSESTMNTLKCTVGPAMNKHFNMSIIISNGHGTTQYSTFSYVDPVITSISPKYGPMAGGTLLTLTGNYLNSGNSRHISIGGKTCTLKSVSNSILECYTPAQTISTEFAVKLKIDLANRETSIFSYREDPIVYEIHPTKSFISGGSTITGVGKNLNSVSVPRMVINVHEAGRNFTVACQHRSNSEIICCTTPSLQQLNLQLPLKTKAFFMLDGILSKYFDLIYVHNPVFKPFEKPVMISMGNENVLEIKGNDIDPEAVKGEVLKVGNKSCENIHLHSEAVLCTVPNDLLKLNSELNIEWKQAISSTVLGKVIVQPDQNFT

B1: Fab^2 Met47 LHL-LHL (as used in the Tg32 mouse studies) (bispecific antibody, not shown: a dimerising Fc or GST)
heavy: QVQLVQSGAEVKKPGASVKVSCKASGYTFTSYTMHWVRQAPGQGLEWMGIINPSGGSTSYAQKFQGRVTMTRDTSTSTVYMELSSLRSEDTAVYYCARQEITTEFDYWGQGTLVTVSSASTKGPSVFPLAPSSKSTSGGTAALGCLVKDYFPEPVTVSWNSGALTSGVHTFPAVLQSSGLYSLSSVVTVPSSSLGTQTYICNVNHKPSNTKVDKKVEPKSCGPAPELLGGGSQVQLVQSGAEVKKPGESLKISCKGSGYTFTNYYIFWVRQMPGKGLEWMGIINPVDGDTNYNPSFQGQVTISADKSISTAYLQWSSLKASDTAMYYCARGGYTMDRWGQGTLVTVSS
light: EIVLTQSPGTLSLSPGERATLSCRASQSVSSYANSYLHWYQQKPGQAPRLLIYRGSTRESGIPDRFSGSGSGTDFTLTISRLEPEDFAVYYCQQSKSEPLTFGGGTKVEIKRTVAAPSVFIFPPSDEQLKSGTASVVCLLNNFYPREAKVQWKVDNALQSGNSQESVTEQDSKDSTYSLSSTLTLSKADYEKHKVYACEVTHQGLSSPVTKSFNRGECGPAPELLGGGSDIVMTQSPLSLPVTPGEPASISCRSSQSLLHSNGYNYLHWYLQKPGQSPQLLIYKVSNRLSGVPDRFSGSGSGTDFTLKISRVEAEDVGVYYCFQNTHTPRTFGGGTKVEIK
Turning to B1, the binding result in test [1] is recorded as “no binding (tested: 10 µg/ml)”.

B2: Fab^2 cMETCD47-L2-L2 (bispecific antibody)
heavy: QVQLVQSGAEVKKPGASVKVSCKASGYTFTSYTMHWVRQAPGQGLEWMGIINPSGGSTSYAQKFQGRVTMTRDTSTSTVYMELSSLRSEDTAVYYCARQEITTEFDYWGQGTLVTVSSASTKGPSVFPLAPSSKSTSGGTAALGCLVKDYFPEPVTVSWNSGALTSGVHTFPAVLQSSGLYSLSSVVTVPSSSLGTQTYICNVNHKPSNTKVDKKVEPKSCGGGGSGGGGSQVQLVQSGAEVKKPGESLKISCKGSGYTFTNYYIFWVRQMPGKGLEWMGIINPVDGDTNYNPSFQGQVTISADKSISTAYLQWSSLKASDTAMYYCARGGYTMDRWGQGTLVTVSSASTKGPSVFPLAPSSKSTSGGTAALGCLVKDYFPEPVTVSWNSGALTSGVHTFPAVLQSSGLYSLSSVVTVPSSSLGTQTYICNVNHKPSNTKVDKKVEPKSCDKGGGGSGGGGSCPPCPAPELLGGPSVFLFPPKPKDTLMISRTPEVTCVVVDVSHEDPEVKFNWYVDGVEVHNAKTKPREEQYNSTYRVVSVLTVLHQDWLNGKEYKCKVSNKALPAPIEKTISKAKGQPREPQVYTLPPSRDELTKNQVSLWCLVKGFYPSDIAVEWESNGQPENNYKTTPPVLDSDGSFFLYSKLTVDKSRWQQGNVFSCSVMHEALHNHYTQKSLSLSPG
light: EIVLTQSPGTLSLSPGERATLSCRASQSVSSYANSYLHWYQQKPGQAPRLLIYRGSTRESGIPDRFSGSGSGTDFTLTISRLEPEDFAVYYCQQSKSEPLTFGGGTKVEIKRTVAAPSVFIFPPSDEQLKSGTASVVCLLNNFYPREAKVQWKVDNALQSGNSQESVTEQDSKDSTYSLSSTLTLSKADYEKHKVYACEVTHQGLSSPVTKSFNRGECGGGGSGGGGSDIVMTQSPLSLPVTPGEPASISCRSSQSLLHSNGYNYLHWYLQKPGQSPQLLIYKVSNRLSGVPDRFSGSGSGTDFTLKISRVEAEDVGVYYCFQNTHTPRTFGGGTKVEIKRTVAAPSVFIFPPSDEQLKSGTASVVCLLNNFYPREAKVQWKVDNALQSGNSQESVTEQDSKDSTYSLSSTLTLSKADYEKHKVYACEVTHQGLSSPVTKSFNRGECGGGGSGGGGSCPPCPAPELLGGPSVFLFPPKPKDTLMISRTPEVTCVVVDVSHEDPEVKFNWYVDGVEVHNAKTKPREEQYNSTYRVVSVLTVLHQDWLNGKEYKCKVSNKALPAPIEKTISKAKGQPREPQVYTLPPSRDELTKNQVSLSCAVKGFYPSDIAVEWESNGQPENNYKTTPPVLDSDGSFFLVSKLTVDKSRWQQGNVFSCSVMHEALHNHYTQKSLSLSPG
B2: in test [2], the “fold reduction of ability to induce agglutination in comparison to A-D5 IgG1” value is greater than 241 fold.

B3: A-D5 anti-CD47 IgG1 (antibody, V domains shown)
VH: QVQLVQSGAEVKKPGESLKISCKGSGYTFTNYYIFWVRQMPGKGLEWMGIINPVDGDTNYNPSFQGQVTISADKSISTAYLQWSSLKASDTAMYYCARGGYTMDRWGQGTLVTVSS
VL: DIVMTQSPLSLPVTPGEPASISCRSSQSLLHSNGYNYLHWYLQKPGQSPQLLIYKVSNRLSGVPDRFSGSGSGTDFTLKISRVEAEDVGVYYCFQNTHTPRTFGGGTKVEIK
notes: also called A-D5 IgG1; A-D5 CD47 IgG
Turning to B3, in test [3], the affinity, expressed as Kd, was 1.29 nM; the koff stood at 0.00107 s⁻¹; the kon is 833000 M⁻¹ s⁻¹. In test [4], this molecule returned a Kd of 1.32 nM, a koff of 0.00103 s⁻¹ and a kon of 775000 M⁻¹ s⁻¹.

B4: Fab^2 cMETCD47-LHL-LHL (bispecific antibody)
heavy: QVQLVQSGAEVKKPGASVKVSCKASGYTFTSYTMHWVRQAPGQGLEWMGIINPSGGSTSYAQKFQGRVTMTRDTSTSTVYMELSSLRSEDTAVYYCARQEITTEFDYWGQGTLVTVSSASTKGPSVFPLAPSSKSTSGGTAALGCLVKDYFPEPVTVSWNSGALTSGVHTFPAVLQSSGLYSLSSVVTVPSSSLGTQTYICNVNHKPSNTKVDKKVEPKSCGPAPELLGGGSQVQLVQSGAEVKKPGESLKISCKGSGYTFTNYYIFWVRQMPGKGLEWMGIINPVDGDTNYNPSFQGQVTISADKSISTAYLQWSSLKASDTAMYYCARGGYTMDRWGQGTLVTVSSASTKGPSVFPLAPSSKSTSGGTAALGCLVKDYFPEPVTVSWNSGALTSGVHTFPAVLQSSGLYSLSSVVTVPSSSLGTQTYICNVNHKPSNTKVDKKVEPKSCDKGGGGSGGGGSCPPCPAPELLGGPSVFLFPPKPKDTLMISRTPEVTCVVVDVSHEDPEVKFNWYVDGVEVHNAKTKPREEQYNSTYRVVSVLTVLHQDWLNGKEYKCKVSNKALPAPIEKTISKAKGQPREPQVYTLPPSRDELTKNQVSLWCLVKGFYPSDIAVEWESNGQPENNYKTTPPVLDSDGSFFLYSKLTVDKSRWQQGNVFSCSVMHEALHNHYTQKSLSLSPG
light: EIVLTQSPGTLSLSPGERATLSCRASQSVSSYANSYLHWYQQKPGQAPRLLIYRGSTRESGIPDRFSGSGSGTDFTLTISRLEPEDFAVYYCQQSKSEPLTFGGGTKVEIKRTVAAPSVFIFPPSDEQLKSGTASVVCLLNNFYPREAKVQWKVDNALQSGNSQESVTEQDSKDSTYSLSSTLTLSKADYEKHKVYACEVTHQGLSSPVTKSFNRGECGPAPELLGGGSDIVMTQSPLSLPVTPGEPASISCRSSQSLLHSNGYNYLHWYLQKPGQSPQLLIYKVSNRLSGVPDRFSGSGSGTDFTLKISRVEAEDVGVYYCFQNTHTPRTFGGGTKVEIKRTVAAPSVFIFPPSDEQLKSGTASVVCLLNNFYPREAKVQWKVDNALQSGNSQESVTEQDSKDSTYSLSSTLTLSKADYEKHKVYACEVTHQGLSSPVTKSFNRGECGGGGSGGGGSCPPCPAPELLGGPSVFLFPPKPKDTLMISRTPEVTCVVVDVSHEDPEVKFNWYVDGVEVHNAKTKPREEQYNSTYRVVSVLTVLHQDWLNGKEYKCKVSNKALPAPIEKTISKAKGQPREPQVYTLPPSRDELTKNQVSLSCAVKGFYPSDIAVEWESNGQPENNYKTTPPVLDSDGSFFLVSKLTVDKSRWQQGNVFSCSVMHEALHNHYTQKSLSLSPG
notes: also called Met47-LHL-LHL; clone 6
Take B4: the “fold reduction of ability to bind CD47 in comparison to A-D5 IgG1” value in test [5] was greater than 1000 fold. The binding result in test [6] is given as “binds”. In addition, the “fold reduction of ability to induce agglutination in comparison to A-D5 IgG1” value in test [2] is greater than 241 fold.

The values are drawn from patent US20230192899A1 (published 2023).
